# From patent publication US20230212319A1, “NOVEL ANTIGEN BINDING DOMAINS AND SYNTHETIC ANTIGEN RECEPTORS INCORPORATING THE SAME” (University of Southern California, priority 2020, published 2023)
# Key:
# [1] = tested on: DAUDI; assay: JNG assay, co-culture with DAUDI cells; assay type: cell-based
# Method: Cellular supernatant is collected and assayed for the induction of cytokines (e.g., IL2).
# JNG (Jurkat cells expressing EGFP under an NFAT promoter) were infected with lentiviral vectors encoding different single chain and multi-chain SARs by spinfection in the presence of 8 µg/ml of Polybrene® (Sigma, Catalog no. H9268). The Jurkat-NFAT-GFP cells are engineered in such a way that the IL-2 promoter, which carries NFAT binding sites, is cloned upstream of the GFP gene. These cells have been used to study signaling via TCR and CAR. The different SARs were stably expressed in Jurkat NFAT-GFP cells by lentiviral mediated gene transfer, followed by selection with puromycin or blasticidin. No drug selection was used in case the construct lacked an antibiotic resistance gene. The SAR-expressing Jurkat-NFAT-GFP cells were cocultured with the target cells at E:T ratio of approximately 1:2 for approximately 4 hours to 18 hours. When the interaction between SIRs and their target antigen results in activation of the NFAT pathway, GFP expression is induced. […] GFP expression was monitored by FACS analysis. The Jurkat-NFAT-GFP (parental) cells were used as control. The structure of different constructs can be determined based on their names. […] The sequence of the other constructs in the table can be similarly determined from their names and by referring to the different Tables of this disclosure that provide the names and SEQ ID NO of the different modules. Alternatively, the composition and modular architecture of the different SAR constructs can be determined from their sequences by bioinformatics tools, including using nucleic acid and amino acids homology searches. A SAR is considered positive in the assay in case the SAR expressing Jurkat-NFAT-GFP cells show greater % GFP positive cells when cultured with the target cell line as compared to parental Jurkat-NFAT-GFP cells. […] In general, the number +/-, +, 2+, 3+, 4+, 5+ refer to approximately 5%, 10%, 20%, 30%, 40% and 50% GFP positive cells. […]
# [2] = tested on: Nalm6 cells; assay: JNG assay, co-culture with Nalm6 cells; assay type: cell-based; settings: co-culture with Nalm6
# How it was run: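 Jurkat NFAT-GFP reporter cells stably expressing lentivirally transduced SARs, drug-selected where possible, were co-cultured with target cells at E:T ≈1:2 for ~4–18 h. GFP measured by FACS; scored +/- to 5+ (~5–50% GFP+ cells) above parental reporter cells.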
# [3] = tested on: RAJI cells; assay: JNG assay, co-culture with RAJI cells; assay type: cell-based; settings: JNG cells expressing construct, co-culture with Raji
# How it was run: (§1)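 Jurkat NFAT-GFP (JNG) cells stably transduced with SARs by lentivirus, with drug selection where the construct carried a resistance gene, then co-cultured with target cells at E:T ~1:2 for ~4–18 h. % GFP-positive cells measured by FACS against parental JNG; +/- to 5+ correspond to ~5–50% GFP-positive.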
# [4] = tested on: L363 cells; assay: JNG assay, co-culture with L363 cells; assay type: cell-based; settings: co-culture with L363
# How it was run: as §1
# [5] = tested on: SKOV3 cells; assay type: cell-based
# [6] = tested on: PC3 cells; assay: JNG NFAT-GFP induction on co-culture with PC3
# [7] = JNG NFAT-GFP background GFP induction (tonic signaling); settings: JNG cells expressing construct, without target
Molecule,NFAT-GFP ASSAY: Daudi [1],NFAT-GFP ASSAY: Nalm6 [2],NFAT-GFP ASSAY: Raji [3],NFAT-GFP ASSAY: L363 [4],NFAT-GFP ASSAY: SKOV-3 [5],NFAT-GFP ASSAY: PC-3 [6],NFAT-GFP ASSAY: Self Activation (SA) [7]
22003 (protein) MALPVTALLLPLALLLHAARPLEGKPIPNPLLGLDSTGSGEDLKNVFPPEVAVFEPSKAEIAHTQKATLVCLATGFYPDHVELSWWVNGKEVHSGVCTDPQPLKEQPALNDSRYCLSSRLRVSATFWQNPRNHFRCQVQFYGLSENDEWTQDRAKPVTQIVSAEAWGRADCGITSASYHQGVLSATILYEILLGKATLYAVLVSALVLMAMVKRKDSRGRAKRSGSGATNFSLLKQAGDVEENPGPTSTMALPVTALLLPLALLLHAARPQLQLQESGPGLVKPSETLSLTCTVSGDSISSGDYYWGWIRQPPGKGLEWIGHIYYSGVTYYNPSLKSRVTISVDTSRNQFSLKLSSVTAADTAVYYCTREDSSNWRSRGQGTLVTVSSLESGGGGSFEEVQLLESGGGLVQPGGSLRLSCAASGFTFSSYAMSWVRQAPGKGLEWVSSISGSGDYIYYADSVKGRFTISRDISKNTLYLQMNSLRAEDTAVYYCAKEGTGANSSLADYRGQGTLVTVSSTREQKLISEEDGSGIQNPDPAVYQLRDSKSSDKSVCLFTDFDSQTNVSQSKDSDVYITDKCVLDMRSMDFKSNSAVAWSNKSDFACANAFNNSIIPEDTFFPSSDVPCDVKLVEKSFETDTNLNFQNLSVIGFRILLLKVAGFNLLMTLRLWSSRAKRSGSGVKQTLNFDLLKLAGDVESNPGPSRGHMTEYKPTVRLATRDDVPRAVRTLAAAFADYPATRHTVDPDRHIERVTELQELFLTRVGLDIGKVWVADDGAAVAVWTTPESVEAGAVFAEIGPRMAELSGSRLAAQQQMEGLLAPHRPKEPAWFLATVGVSPDHQGKGLGSAVVLPGVEAAERAGVPAFLETSAPRNLPFYERLGFTVTADVEVPEGPRTWCMTRKPGA,"+/- (refer to approximately 5%, 10%, 20%, 30%, 40% and 50% GFP positive cells)","+/- (refer to approximately 5%, 10%, 20%, 30%, 40% and 50% GFP positive cells)","+ (refer to approximately 5%, 10%, 20%, 30%, 40% and 50% GFP positive cells)","+ (refer to approximately 5%, 10%, 20%, 30%, 40% and 50% GFP positive cells)",–,–,–
22004 (protein) MALPVTALLLPLALLLHAARPLEGKPIPNPLLGLDSTGSGEDLKNVFPPEVAVFEPSKAEIAHTQKATLVCLATGFYPDHVELSWWVNGKEVHSGVCTDPQPLKEQPALNDSRYCLSSRLRVSATFWQNPRNHFRCQVQFYGLSENDEWTQDRAKPVTQIVSAEAWGRADCGITSASYHQGVLSATILYEILLGKATLYAVLVSALVLMAMVKRKDSRGRAKRSGSGATNFSLLKQAGDVEENPGPTSTMALPVTALLLPLALLLHAARPQLQLQESGPGLVKPSETLSLTCTVSGDSISSGDYYWGWIRQPPGKGLEWIGHIYYSGVTYYNPSLKSRVTISVDTSRNQFSLKLSSVTAADTAVYYCTREDSSNWRSRGQGTLVTVSSLESGGGGSFEQVQLVESGGGLVQPGGSLRLSCAASGFTFTNHAMSWVRQAPGKGLELVSSISGNGRTTYYADSVKGRFTISRDISKNTLDLQMNSLRAEDTAVYYCAKDGGETLVDSRGQGTLVTVSSTREQKLISEEDGSGIQNPDPAVYQLRDSKSSDKSVCLFTDFDSQTNVSQSKDSDVYITDKCVLDMRSMDFKSNSAVAWSNKSDFACANAFNNSIIPEDTFFPSSDVPCDVKLVEKSFETDTNLNFQNLSVIGFRILLLKVAGFNLLMTLRLWSSRAKRSGSGVKQTLNFDLLKLAGDVESNPGPSRGHMTEYKPTVRLATRDDVPRAVRTLAAAFADYPATRHTVDPDRHIERVTELQELFLTRVGLDIGKVWVADDGAAVAVWTTPESVEAGAVFAEIGPRMAELSGSRLAAQQQMEGLLAPHRPKEPAWFLATVGVSPDHQGKGLGSAVVLPGVEAAERAGVPAFLETSAPRNLPFYERLGFTVTADVEVPEGPRTWCMTRKPGA,"+/- (refer to approximately 5%, 10%, 20%, 30%, 40% and 50% GFP positive cells)","+/- (refer to approximately 5%, 10%, 20%, 30%, 40% and 50% GFP positive cells)","+ (refer to approximately 5%, 10%, 20%, 30%, 40% and 50% GFP positive cells)","+ (refer to approximately 5%, 10%, 20%, 30%, 40% and 50% GFP positive cells)",–,–,–
22692 (protein) MALPVTALLLPLALLLHAARPDIQMTQSPSSLSASVGDRVTITCRASQDISNYLNWYQQKPGKAPKLLIYYTSRLHSGVPSRFSGSGSGTDFTLTISSLQPEDFATYYCQQGNTLPWTFGQGTKVEIKRLEDLKNVFPPEVAVFEPSEAEISHTQKATLVCLATGFYPDHVELSWWVNGKEVHSGVCTDPQPLKEQPALNDSRYCLSSRLRVSATFWQNPRNHFRCQVQFYGLSENDEWTQDRAKPVTQIVSAEAWGRADCGFTSESYQQGVLSATILYEILLGKATLYAVLVSALVLMAMVKRKDSRGRAKRSGSGATNFSLLKQAGDVEENPGPTSMDWIWRILFLVGAATGAHSFEVQLVESGGGLVQPGGSLRLSCAASGFTFSDYFMSWVRQAPGKGLEWVATISNGGTYTYYPDSVKGRFTISRDNSKNTLYLQMNSLRAEDTAVYYCARFDGYIFDYWGQGTLVTVSSTRIQNPDPAVYQLRDSKSSDKSVCLFTDFDSQTNVSQSKDSDVYITDKCVLDMRSMDFKSNSAVAWSNKSDFACANAFNNSIIPEDTFFPSPESSCDVKLVEKSFETDTNLNFQNLSVIGFRILLLKVAGFNLLMTLRLWSSRAKRSGSGVKQTLNFDLLKLAGDVESNPGPSRGHMTEYKPTVRLATRDDVPRAVRTLAAAFADYPATRHTVDPDRHIERVTELQELFLTRVGLDIGKVWVADDGAAVAVWTTPESVEAGAVFAEIGPRMAELSGSRLAAQQQMEGLLAPHRPKEPAWFLATVGVSPDHQGKGLGSAVVLPGVEAAERAGVPAFLETSAPRNLPFYERLGFTVTADVEVPEGPRTWCMTRKPGA,–,–,–,–,weaker but sufficient GFP induction,none to negligible GFP induction,–
21997 (protein) MALPVTALLLPLALLLHAARPQLQLQESGPGLVKPSETLALTCNVSGGSISSSSYYWGWIRQPPGKRLEWIGSIYYSGSTYFNPSLKSRVTISVDTSKNQFSLKLSSVTAADTAVYYCAGGDYYGPVGQWPSDYRGQGTLVTVSSLEDLKNVFPPEVAVFEPSEAEISHTQKATLVCLATGFYPDHVELSWWVNGKEVHSGVCTDPQPLKEQPALNDSRYCLSSRLRVSATFWQNPRNHFRCQVQFYGLSENDEWTQDRAKPVTQIVSAEAWGRADCGFTSESYQQGVLSATILYEILLGKATLYAVLVSALVLMAMVKRKDSRGRAKRSGSGATNFSLLKQAGDVEENPGPTSMDWIWRILFLVGAATGAHSFEQVQLVESGGGLVQPGGSLRLSCAASGFTFTNHAMSWVRQAPGKGLELVSSISGNGRTTYYADSVKGRFTISRDISKNTLDLQMNSLRAEDTAVYYCAKDGGETLVDSRGQGTLVTVSSTRIQNPDPAVYQLRDSKSSDKSVCLFTDFDSQTNVSQSKDSDVYITDKCVLDMRSMDFKSNSAVAWSNKSDFACANAFNNSIIPEDTFFPSPESSCDVKLVEKSFETDTNLNFQNLSVIGFRILLLKVAGFNLLMTLRLWSSRAKRSGSGVKQTLNFDLLKLAGDVESNPGPSRGHMTEYKPTVRLATRDDVPRAVRTLAAAFADYPATRHTVDPDRHIERVTELQELFLTRVGLDIGKVWVADDGAAVAVWTTPESVEAGAVFAEIGPRMAELSGSRLAAQQQMEGLLAPHRPKEPAWFLATVGVSPDHQGKGLGSAVVLPGVEAAERAGVPAFLETSAPRNLPFYERLGFTVTADVEVPEGPRTWCMTRKPGA,–,–,–,"+ (refer to approximately 5%, 10%, 20%, 30%, 40% and 50% GFP positive cells)",–,–,Self Activation
